Assay results published in US20140087995A1 (published 2014).
Numbering of substitutions follows the chain as printed. Numbered stars: 1 amine (or outer) side, 2 acyl side, 3 side chain; on linkers, the order of the positions; unused ones are H or OH. Bridge positions count the residues as written; N and C are the ends. * marks the point of attachment. C20 diacid = O=C(O)CCCCCCCCCCCCCCCCCCC(=O)*; γGlu = O=C(O)[C@H](CCC(=O)[*:2])N[*:1]

T1: human calcitonin receptor (human, UniProt P30988 25-474)
T1 construct: whole, on cells; Assay used cell membranes of the transfected BHK cells; also called hCTR; hCT
T1 sequence (looked up): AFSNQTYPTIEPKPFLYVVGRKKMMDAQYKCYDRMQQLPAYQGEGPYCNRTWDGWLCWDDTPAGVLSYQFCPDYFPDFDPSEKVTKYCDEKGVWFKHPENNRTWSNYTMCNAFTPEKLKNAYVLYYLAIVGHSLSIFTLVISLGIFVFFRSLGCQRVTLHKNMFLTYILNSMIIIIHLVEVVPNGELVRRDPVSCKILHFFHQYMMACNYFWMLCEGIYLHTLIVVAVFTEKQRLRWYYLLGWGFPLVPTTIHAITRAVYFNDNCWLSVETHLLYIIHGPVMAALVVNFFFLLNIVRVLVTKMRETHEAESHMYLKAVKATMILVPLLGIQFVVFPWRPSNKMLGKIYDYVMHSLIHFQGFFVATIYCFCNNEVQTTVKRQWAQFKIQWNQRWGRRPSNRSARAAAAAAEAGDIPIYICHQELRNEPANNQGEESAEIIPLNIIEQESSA

B1: N^α1-[2-[2-[2-[[2-[2-[2-[[(4S)-4-carboxy-4-(19-carboxynonadecanoylamino)butanoyl]amino]ethoxy]ethoxy]acetyl]amino]ethoxy]ethoxy]acetyl]-[Glu14,Arg17,Pro21,Pro27 … (peptide)
peptide: KCNTATCATQRLAEFLRHSSPNFGAIPSSTNVGSNTY
modifications: C20 diacid-gGlu-2xOEG on the alpha amino group of the N-terminal residue (Lys1); disulfide Cys2-Cys7; C-terminal amide
notes: Synthetic analogue; also called compound 19
B2: N^α1-[(4S)-4-carboxy-4-(19-carboxynonadecanoylamino)butanoyl]-[Arg17,Pro21,Pro27,Arg34]-h-amylin (peptide)
peptide: B1 peptide with E14N, S34R
modifications: C20 diacid-gGlu on the alpha amino group of the N-terminal residue (Lys1); disulfide Cys2-Cys7; C-terminal amide
notes: Synthetic analogue; also called compound 39
B3: N^α1-[(4S)-4-carboxy-4-(19-carboxynonadecanoylamino)butanoyl]-[Arg17,Pro21,Pro27,Glu35]-h-amylin (peptide)
peptide: B1 peptide with E14N, N35E
modifications: C20 diacid-gGlu on the alpha amino group of the N-terminal residue (Lys1); disulfide Cys2-Cys7; C-terminal amide
notes: Synthetic analogue; also called compound 23
B4: N^α1-[(4S)-4-carboxy-4-(19-carboxynonadecanoylamino)butanoyl]-[Arg17,Pro21,Pro27,His34]-h-amylin (peptide)
peptide: B1 peptide with E14N, S34H
modifications: C20 diacid-gGlu on the alpha amino group of the N-terminal residue (Lys1); disulfide Cys2-Cys7; C-terminal amide
notes: Synthetic analogue; also called compound 40
B5: N^α1-[(4S)-4-carboxy-4-(19-carboxynonadecanoylamino)butanoyl]-[Arg17,Pro21,Pro27,Pro31,Glu35]-h-amylin (peptide)
peptide: {C20 diacid-γGlu}-KCNTATCATQRLANFLRHSSPNFGAIPSSTPVGSETY-NH2
modifications: disulfide 2-7
SMILES: CC[C@H](C)[C@H](NC(=O)[C@H](C)NC(=O)CNC(=O)[C@H](Cc1ccccc1)NC(=O)[C@H](CC(N)=O)NC(=O)[C@@H]1CCCN1C(=O)[C@H](CO)NC(=O)[C@H](CO)NC(=O)[C@H](Cc1c[nH]cn1)NC(=O)[C@H](CCCNC(=N)N)NC(=O)[C@H](CC(C)C)NC(=O)[C@H](Cc1ccccc1)NC(=O)[C@H](CC(N)=O)NC(=O)[C@H](C)NC(=O)[C@H](CC(C)C)NC(=O)[C@H](CCCNC(=N)N)NC(=O)[C@H](CCC(N)=O)NC(=O)[C@@H](NC(=O)[C@H](C)NC(=O)[C@@H]1CSSC[C@H](NC(=O)[C@H](CCCCN)NC(=O)CC[C@H](NC(=O)CCCCCCCCCCCCCCCCCCC(=O)O)C(=O)O)C(=O)N[C@@H](CC(N)=O)C(=O)N[C@@H]([C@@H](C)O)C(=O)N[C@@H](C)C(=O)N[C@@H]([C@@H](C)O)C(=O)N1)[C@@H](C)O)C(=O)N1CCC[C@H]1C(=O)N[C@@H](CO)C(=O)N[C@@H](CO)C(=O)N[C@H](C(=O)N1CCC[C@H]1C(=O)N[C@H](C(=O)NCC(=O)N[C@@H](CO)C(=O)N[C@@H](CCC(=O)O)C(=O)N[C@H](C(=O)N[C@@H](Cc1ccc(O)cc1)C(N)=O)[C@@H](C)O)C(C)C)[C@@H](C)O
notes: Synthetic analogue; also called compound 28
B6: N^α1-[(4S)-4-carboxy-4-(19-carboxynonadecanoylamino)butanoyl]-[Arg17,Pro21,Pro27,Pro34,Glu35]-h-amylin (peptide)
peptide: {C20 diacid-γGlu}-KCNTATCATQRLANFLRHSSPNFGAIPSSTNVGPETY-NH2
modifications: disulfide 2-7
SMILES: CC[C@H](C)[C@H](NC(=O)[C@H](C)NC(=O)CNC(=O)[C@H](Cc1ccccc1)NC(=O)[C@H](CC(N)=O)NC(=O)[C@@H]1CCCN1C(=O)[C@H](CO)NC(=O)[C@H](CO)NC(=O)[C@H](Cc1c[nH]cn1)NC(=O)[C@H](CCCNC(=N)N)NC(=O)[C@H](CC(C)C)NC(=O)[C@H](Cc1ccccc1)NC(=O)[C@H](CC(N)=O)NC(=O)[C@H](C)NC(=O)[C@H](CC(C)C)NC(=O)[C@H](CCCNC(=N)N)NC(=O)[C@H](CCC(N)=O)NC(=O)[C@@H](NC(=O)[C@H](C)NC(=O)[C@@H]1CSSC[C@H](NC(=O)[C@H](CCCCN)NC(=O)CC[C@H](NC(=O)CCCCCCCCCCCCCCCCCCC(=O)O)C(=O)O)C(=O)N[C@@H](CC(N)=O)C(=O)N[C@@H]([C@@H](C)O)C(=O)N[C@@H](C)C(=O)N[C@@H]([C@@H](C)O)C(=O)N1)[C@@H](C)O)C(=O)N1CCC[C@H]1C(=O)N[C@@H](CO)C(=O)N[C@@H](CO)C(=O)N[C@H](C(=O)N[C@@H](CC(N)=O)C(=O)N[C@H](C(=O)NCC(=O)N1CCC[C@H]1C(=O)N[C@@H](CCC(=O)O)C(=O)N[C@H](C(=O)N[C@@H](Cc1ccc(O)cc1)C(N)=O)[C@@H](C)O)C(C)C)[C@@H](C)O
notes: Synthetic analogue; also called compound 29
B7: N^α1-[(4S)-4-carboxy-4-(19-carboxynonadecanoylamino)butanoyl]-[Glu14,Arg17,Pro21,Pro26]-h-amylin (peptide)
peptide: {C20 diacid-γGlu}-KCNTATCATQRLAEFLRHSSPNFGAPLSSTNVGSNTY-NH2
modifications: disulfide 2-7
SMILES: CC(C)C[C@H](NC(=O)[C@H](CCCNC(=N)N)NC(=O)[C@H](CCC(N)=O)NC(=O)[C@@H](NC(=O)[C@H](C)NC(=O)[C@@H]1CSSC[C@H](NC(=O)[C@H](CCCCN)NC(=O)CC[C@H](NC(=O)CCCCCCCCCCCCCCCCCCC(=O)O)C(=O)O)C(=O)N[C@@H](CC(N)=O)C(=O)N[C@@H]([C@@H](C)O)C(=O)N[C@@H](C)C(=O)N[C@@H]([C@@H](C)O)C(=O)N1)[C@@H](C)O)C(=O)N[C@@H](C)C(=O)N[C@@H](CCC(=O)O)C(=O)N[C@@H](Cc1ccccc1)C(=O)N[C@@H](CC(C)C)C(=O)N[C@@H](CCCNC(=N)N)C(=O)N[C@@H](Cc1c[nH]cn1)C(=O)N[C@@H](CO)C(=O)N[C@@H](CO)C(=O)N1CCC[C@H]1C(=O)N[C@@H](CC(N)=O)C(=O)N[C@@H](Cc1ccccc1)C(=O)NCC(=O)N[C@@H](C)C(=O)N1CCC[C@H]1C(=O)N[C@@H](CC(C)C)C(=O)N[C@@H](CO)C(=O)N[C@@H](CO)C(=O)N[C@H](C(=O)N[C@@H](CC(N)=O)C(=O)N[C@H](C(=O)NCC(=O)N[C@@H](CO)C(=O)N[C@@H](CC(N)=O)C(=O)N[C@H](C(=O)N[C@@H](Cc1ccc(O)cc1)C(N)=O)[C@@H](C)O)C(C)C)[C@@H](C)O
notes: Synthetic analogue; also called compound 7
B8: N^α1-[(4S)-4-carboxy-4-(19-carboxynonadecanoylamino)butanoyl]-[Glu14,Arg17,Pro21,Pro27,Arg35]-h-amylin (peptide)
peptide: {C20 diacid-γGlu}-KCNTATCATQRLAEFLRHSSPNFGAIPSSTNVGSRTY-NH2
modifications: disulfide 2-7
SMILES: CC[C@H](C)[C@H](NC(=O)[C@H](C)NC(=O)CNC(=O)[C@H](Cc1ccccc1)NC(=O)[C@H](CC(N)=O)NC(=O)[C@@H]1CCCN1C(=O)[C@H](CO)NC(=O)[C@H](CO)NC(=O)[C@H](Cc1c[nH]cn1)NC(=O)[C@H](CCCNC(=N)N)NC(=O)[C@H](CC(C)C)NC(=O)[C@H](Cc1ccccc1)NC(=O)[C@H](CCC(=O)O)NC(=O)[C@H](C)NC(=O)[C@H](CC(C)C)NC(=O)[C@H](CCCNC(=N)N)NC(=O)[C@H](CCC(N)=O)NC(=O)[C@@H](NC(=O)[C@H](C)NC(=O)[C@@H]1CSSC[C@H](NC(=O)[C@H](CCCCN)NC(=O)CC[C@H](NC(=O)CCCCCCCCCCCCCCCCCCC(=O)O)C(=O)O)C(=O)N[C@@H](CC(N)=O)C(=O)N[C@@H]([C@@H](C)O)C(=O)N[C@@H](C)C(=O)N[C@@H]([C@@H](C)O)C(=O)N1)[C@@H](C)O)C(=O)N1CCC[C@H]1C(=O)N[C@@H](CO)C(=O)N[C@@H](CO)C(=O)N[C@H](C(=O)N[C@@H](CC(N)=O)C(=O)N[C@H](C(=O)NCC(=O)N[C@@H](CO)C(=O)N[C@@H](CCCNC(=N)N)C(=O)N[C@H](C(=O)N[C@@H](Cc1ccc(O)cc1)C(N)=O)[C@@H](C)O)C(C)C)[C@@H](C)O
notes: Synthetic analogue; also called compound 16
B9: N^α1-[(4S)-4-carboxy-4-(19-carboxynonadecanoylamino)butanoyl]-[Glu14,Arg17,Pro21,Pro27,His34]-h-amylin (peptide)
peptide: {C20 diacid-γGlu}-KCNTATCATQRLAEFLRHSSPNFGAIPSSTNVGHNTY-NH2
modifications: disulfide 2-7
SMILES: CC[C@H](C)[C@H](NC(=O)[C@H](C)NC(=O)CNC(=O)[C@H](Cc1ccccc1)NC(=O)[C@H](CC(N)=O)NC(=O)[C@@H]1CCCN1C(=O)[C@H](CO)NC(=O)[C@H](CO)NC(=O)[C@H](Cc1c[nH]cn1)NC(=O)[C@H](CCCNC(=N)N)NC(=O)[C@H](CC(C)C)NC(=O)[C@H](Cc1ccccc1)NC(=O)[C@H](CCC(=O)O)NC(=O)[C@H](C)NC(=O)[C@H](CC(C)C)NC(=O)[C@H](CCCNC(=N)N)NC(=O)[C@H](CCC(N)=O)NC(=O)[C@@H](NC(=O)[C@H](C)NC(=O)[C@@H]1CSSC[C@H](NC(=O)[C@H](CCCCN)NC(=O)CC[C@H](NC(=O)CCCCCCCCCCCCCCCCCCC(=O)O)C(=O)O)C(=O)N[C@@H](CC(N)=O)C(=O)N[C@@H]([C@@H](C)O)C(=O)N[C@@H](C)C(=O)N[C@@H]([C@@H](C)O)C(=O)N1)[C@@H](C)O)C(=O)N1CCC[C@H]1C(=O)N[C@@H](CO)C(=O)N[C@@H](CO)C(=O)N[C@H](C(=O)N[C@@H](CC(N)=O)C(=O)N[C@H](C(=O)NCC(=O)N[C@@H](Cc1c[nH]cn1)C(=O)N[C@@H](CC(N)=O)C(=O)N[C@H](C(=O)N[C@@H](Cc1ccc(O)cc1)C(N)=O)[C@@H](C)O)C(C)C)[C@@H](C)O
notes: Synthetic analogue; also called compound 17

target: T1, human calcitonin receptor; assay: SPA radioligand competition (125I-calcitonin), membranes of BHK cells with human calcitonin receptor
Outline: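 BHK hCTR membranes 35 ng/μL + SPA beads 0.05 mg/well; buffer 50 mM Hepes pH 7.4, 1 mM CaCl2, 5 mM MgCl₂, 0.1% OA, 0.02% Tween20. 120 min, 25° C., shaking. Scintillation count; IC50 by one-site binding competition.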

Binder | IC50
B1 | 0.0204 µM
B2 | 0.0193 µM
B3 | 0.0218 µM
B4 | 0.0171 µM
B5 | 0.0125 µM
B6 | 0.00801 µM
B7 | 0.0111 µM
B8 | 0.0171 µM
B9 | 0.0109 µM

target: T1, human calcitonin receptor; assay: ratio IC50 hCTR / IC50 hAmylin-R of the two SPA competition assays; reference: human amylin receptor
Method: The resulting pellet was resuspended, homogenized and centrifuged (20.000 rpm, 15 min) in a buffer containing 20 mM Na-HEPES and 0.1 mM EDTA (pH 7.4, buffer 2). The resulting pellet was resuspended in buffer 2 and protein concentration was measured (BCA protein Assay, Pierce). The homogenate was kept cold during the whole procedure. The membranes were kept at −80° C. until use. The assay was performed in a 384 well Optiplate (PerkinElmer) in a total volume of 40 ul. Membranes were mixed with SPA beads. Final concentration of membranes 35 ng/μL final and SPA beads was 0.05 mg/well. Test-compounds were dissolved in DMSO and further diluted in assay buffer (50 mM Hepes, pH 7.4, 1 mM CaCl2, 5 mM MgCl₂, 0.1% OA and 0.02% Tween20). […] The final mixture was incubated with shaking at 400 rpm for 120 min at 25° C. prior to centrifugation (1500 rpm, 10 min). Samples were analyzed on TopCounter™ (Packard). The IC₅₀ was calculated using (one site binding competition analysis) GraphPad Prism5 as a measure of receptor affinity.
Membranes were prepared in the following way; the cells were rinsed with PBS and incubated with Versene for approximately 5 min before harvesting. The cells were flushed with PBS and the cell-suspension was centrifuged for 5 min at 1000 rpm. Cells were homogenized (Ultrathurrax) in a buffer containing 20 mM Na-HEPES and 10 mM EDTA (pH 7.4) and centrifuged at 20.000 rpm for 15 min. The resulting pellet was resuspended, homogenized and centrifuged (20.000 rpm, 15 min) in a buffer containing 20 mM Na-HEPES and 0.1 mM EDTA (pH 7.4, buffer 2). The resulting pellet was resuspended in buffer 2 and protein concentration was measured (BCA protein Assay, Pierce). The homogenate was kept cold during the whole procedure. The membranes were kept at −80° C. until use. Assay was performed in a 384 well Optiplate (PerkinElmer) in a total volume of 40 ul. Membranes were mixed with SPA beads.

Binder | Ratio hCT/hAmylin binding
B1 | 36.7
B2 | 29
B3 | 25
B4 | 31.1
B5 | 20.5
B6 | 13.9
B7 | 16.5
B8 | 19.1
B9 | 12.5
